Here are results for one molecule from US20230345975A1, “COMPOSITIONS AND METHODS OF PRESERVING MEAT SUBSTITUTES” (Wisconsin Alumni Research Foundation, priority 2016, published 2023).

In the data set the target is soybean Hb (Lba) (Glycine max, UniProt P02238). Nature of the data set: Redness (a-value) of Lba solutions after exposure to 35 fc of light for 4 days. The note with it: 35 fc light, 4 days, main effect over niacin amounts. The method, then:
FIG. 2—Effect of pH and different molar ratios of niacin to soybean Hb on the redness of Lba solutions. Measurement after exposure to 35 fc of light for 4 days
100 grams of meat analog containing a 3:1 dose of niacin would provide 5.9 mg niacin; a 6:1 dose would provide 11.8 mg niacin.

Chain of soybean Hb (Lba) (P02238 whole entry): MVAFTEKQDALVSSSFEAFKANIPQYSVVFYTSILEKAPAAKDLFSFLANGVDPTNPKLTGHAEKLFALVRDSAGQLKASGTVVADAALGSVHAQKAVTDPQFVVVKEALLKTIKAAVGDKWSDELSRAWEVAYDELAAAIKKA

B1: Lba: plant Hb (soybean hemoglobin; Lba) added to meat analog (protein, UniProt P02238 2-144, looked up)
Leghemoglobin 3: VAFTEKQDALVSSSFEAFKANIPQYSVVFYTSILEKAPAAKDLFSFLANGVDPTNPKLTGHAEKLFALVRDSAGQLKASGTVVADAALGSVHAQKAVTDPQFVVVKEALLKTIKAAVGDKWSDELSRAWEVAYDELAAAIKKA
Take B1: the “Redness (a-value) at day 4” value was found to be 4.72a (pH 6.0), 4.62ab (pH 6.3), 4.45b (pH 6.6) and 3.99c (pH 7.0).
